Measurements: CN107043422A (CHENGDU KANGHONG BIOLOGICAL TECH CO LTD, dated 2017)
Residue numbers refer to the chain shown, from its start. Blank lines part the entries; values can stand above or below the binder they belong to.

What was measured:
猪CFD [1] = target: T1, 猪CFD (猪 (pig), UniProt P51779 27-259, limits assumed); assay: BLI (Octet QK), antibody on Protein A biosensor, CFD transfection supernatant in solution
T1 construct: Transiently expressed in DG44 cells; The culture supernatant was used unpurified in the Octet assay; also called pig CFD; 猪(GeneID:396877)

[2] = target: T2, 大鼠血清中的补体因子D (rat serum complement factor D) (大鼠 (rat), UniProt P32038 26-263); assay: cell-based or functional assay
T2 sequence (looked up): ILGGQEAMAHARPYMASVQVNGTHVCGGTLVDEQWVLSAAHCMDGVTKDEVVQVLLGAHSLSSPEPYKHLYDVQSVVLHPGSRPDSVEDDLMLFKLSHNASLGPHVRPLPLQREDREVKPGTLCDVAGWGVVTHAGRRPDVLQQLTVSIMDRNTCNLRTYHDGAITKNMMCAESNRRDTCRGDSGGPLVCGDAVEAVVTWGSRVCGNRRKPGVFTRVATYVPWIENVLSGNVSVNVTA

人CFD蛋白 = target: T3, 人CFD蛋白 (人 (human), UniProt P00746 26-253, limits assumed); assay: BLI (Octet QK), human CFD on Ni-NTA biosensor, KH-A at 125 nM in rabbit vitreous fluid
T3 construct: also called human complement factor D

猪CFD [3] = target: T1, 猪CFD; assay: BLI (Octet QK), His-tagged CFD supernatant on Ni-NTA biosensor, Fab at 10 μg/ml

T1 sequence (P51779 other isoform, or with tags, fused parts or gaps limits assumed): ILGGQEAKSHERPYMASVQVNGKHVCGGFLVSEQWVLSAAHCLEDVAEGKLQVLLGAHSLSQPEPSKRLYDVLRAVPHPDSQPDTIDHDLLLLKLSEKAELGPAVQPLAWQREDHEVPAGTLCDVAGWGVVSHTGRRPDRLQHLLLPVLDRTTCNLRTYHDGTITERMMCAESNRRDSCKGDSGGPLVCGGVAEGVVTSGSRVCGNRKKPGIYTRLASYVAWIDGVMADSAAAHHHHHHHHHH
T3 sequence (P00746 26-253 limits assumed): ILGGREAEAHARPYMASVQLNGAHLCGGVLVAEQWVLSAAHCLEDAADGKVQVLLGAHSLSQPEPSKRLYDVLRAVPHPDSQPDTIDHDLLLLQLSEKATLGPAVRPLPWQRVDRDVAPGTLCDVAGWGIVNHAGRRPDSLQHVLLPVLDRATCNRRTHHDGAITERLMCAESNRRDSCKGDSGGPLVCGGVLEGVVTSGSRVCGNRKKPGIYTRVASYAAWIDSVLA

B1: KH-A (antibody, human IgG4 S228P, kappa, V domains shown)
VH: QVQLVQSGPELKKPGASVKVSCKASGYTFTNYGMNWVRQAPGQGLEWMGWINTYTGETTYADDFKGRFVFSLDTSVSTAYLQISSLKAEDTAVYYCEREGGVNYWGQGTLVTVSS
VL: DIQVTQSPSSLSASVGDRVTITCITSTDIDDDMNWYQQKPGKVPKLLISGGATLRPGVPSRFSGSGSGTDFTLTISSLQPEDVATYYCLQSDSLPYTFGQGTKLEIKR
notes: Full-length humanized anti-complement factor D antibody expressed in CHO-S cells; also called 抗体KH-A; 全长抗体KH-A
binding result (猪CFD [1]): binds | IC50, 全长抗体抑制大鼠血清致兔红细胞溶血 (ACH50法, 补体旁路途径活性) [2]: 3860 µg/mL | binding result (人CFD蛋白): binds

B2: KH021 (Fab, V domains shown)
VH: B1 VH with Y104S
VL: B1 VL with M33V, A52N, L89M
notes: Fab expressed in the E. coli periplasm; also called Fab抗体KH021
binding result (猪CFD [3]): binds

Next, values leading:

binding result (猪CFD [3]): binds
B3: KH027 (Fab, V domains shown)
VH: B1 VH
VL: B1 VL
notes: Fab expressed in the E. coli periplasm; also called Fab抗体KH027

binding result (猪CFD [1]): binds | IC50, 全长抗体抑制大鼠血清致兔红细胞溶血 (ACH50法, 补体旁路途径活性) [2]: 3960 µg/mL
B4: KH-F (antibody, human IgG4 S228P, kappa, V domains shown)
VH: B1 VH with Y104S
VL: B1 VL with M33V, A52N, L89M
notes: also called 全长抗体KH-F
